In PMC10136361, “Inhibition Analysis and High-Resolution Crystal Structure of Mus musculus Glutathione Transferase P1-1” (Biomolecules, 2023):

Molecular target: the molecule itself
Experiment: crystal structure; co-crystallised with 2.5 mM Nb-GSH, hanging drop vapor diffusion, 0.1 M Tris-HCl pH 8.0, PEG 6000 20% (w/v), 0.2 M calcium chloride; data to 1.28 Å at 100 K; two molecules in the asymmetric unit

B1: Mus musculus glutathione transferase P1-1 (enzyme, UniProt P19157 1-210, looked up)
chain: MPPYTIVYFPVRGRCEAMRMLLADQGQSWKEEVVTIDTWMQGLLKPTCLYGQLPKFEDGDLTLYQSNAILRHLGRSLGLYGKNQREAAQMDMVNDGVEDLRGKYVTLIYTNYENGKNDYVKALPGHLKPFETLLSQNQGGKAFIVGDQISFADYNLLDLLLIHQVLAPGCLDNFPLLSAYVARLSARPKIKAFLSSPEHVNRPINGNGKQ
notes: Glutathione S-transferase P1, Mus musculus, cloned from cDNA by PCR after GenBank BC061109.1; also called MmGSTP1-1; GSTP1-1 from Mus musculus
binding result: binds
